For one substance, ERE-driven luciferase activity (ERE-TATA-LUC reporter in HEK 293 cells) (fold reduction) results are on record in patent publication US20140157444A1.

Experiment [1] addresses Myc-tagged estrogen receptor beta (UniProt O08537). Nature of the experiment: cell-based or functional assay.
Experiment [2] has as its target GFP-ERα (human) (UniProt P03372). Nature of the experiment: cell-based or functional assay.

Chain of GFP-ERα (human) (P03372 whole entry): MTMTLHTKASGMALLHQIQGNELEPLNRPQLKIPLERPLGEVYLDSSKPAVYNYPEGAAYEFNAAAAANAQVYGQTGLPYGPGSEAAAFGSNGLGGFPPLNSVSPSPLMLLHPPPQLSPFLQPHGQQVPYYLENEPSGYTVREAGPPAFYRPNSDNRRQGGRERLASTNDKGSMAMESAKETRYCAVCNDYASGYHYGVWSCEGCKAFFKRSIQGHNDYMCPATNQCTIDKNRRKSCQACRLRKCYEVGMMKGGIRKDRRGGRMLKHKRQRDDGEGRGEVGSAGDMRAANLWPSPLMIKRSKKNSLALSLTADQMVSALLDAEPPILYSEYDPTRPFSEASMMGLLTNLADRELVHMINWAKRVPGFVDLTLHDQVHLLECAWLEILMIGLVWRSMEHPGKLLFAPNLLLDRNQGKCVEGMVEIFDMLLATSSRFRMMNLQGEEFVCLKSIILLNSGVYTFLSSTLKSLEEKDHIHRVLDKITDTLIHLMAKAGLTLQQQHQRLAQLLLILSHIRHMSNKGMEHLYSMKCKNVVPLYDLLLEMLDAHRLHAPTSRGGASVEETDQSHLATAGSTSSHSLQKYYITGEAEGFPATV
Chain of Myc-tagged estrogen receptor beta (O08537 whole entry): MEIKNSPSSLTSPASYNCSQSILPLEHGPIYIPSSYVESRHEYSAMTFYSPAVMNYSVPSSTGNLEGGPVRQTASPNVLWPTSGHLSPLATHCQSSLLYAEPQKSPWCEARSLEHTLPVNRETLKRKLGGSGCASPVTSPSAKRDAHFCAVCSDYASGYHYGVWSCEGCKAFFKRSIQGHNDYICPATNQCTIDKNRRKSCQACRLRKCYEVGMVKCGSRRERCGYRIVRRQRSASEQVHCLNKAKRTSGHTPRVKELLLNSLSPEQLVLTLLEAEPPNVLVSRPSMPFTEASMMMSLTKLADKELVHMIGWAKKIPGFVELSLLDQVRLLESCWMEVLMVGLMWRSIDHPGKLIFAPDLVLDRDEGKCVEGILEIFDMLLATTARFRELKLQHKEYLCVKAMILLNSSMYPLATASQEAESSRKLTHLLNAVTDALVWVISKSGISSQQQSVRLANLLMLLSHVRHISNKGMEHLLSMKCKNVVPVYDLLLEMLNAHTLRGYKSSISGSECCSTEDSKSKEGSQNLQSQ

For the substance “WDR13 (overexpressed in the luciferase assay, construct not stated) (from UniProt Q91V09 1-485)”, the ERE-driven luciferase activity (ERE-TATA-LUC reporter in HEK 293 cells) (fold reduction) in experiment [1] and in experiment [2] was 2 throughout.
